Consider two molecules from patent US20240122985A1, “ANTIBODIES, COMBINATIONS COMPRISING ANTIBODIES, BIOMARKERS, USES & METHODS” (KYMAB LIMITED, priority 2016, published 2024).

Values joined by “and” are separate entries in the source; they are usually repeats but may differ in a detail not shown here. Equal values may be shown once.

The subject of series [1] is human T-cells with allogeneic T-cell-depleted cells. The series can be described thus: Human mixed lymphocyte reaction (CellTrace Violet). Type of series: cell-based. The settings on record: KY1005 150 μg/L, 7 days (FIG. 12H). As for the experimental part: Human Mixed Lymphocyte Reaction: Human MLRs were performed on unrelated healthy controls. PBMC samples were freshly isolated by Ficoll fractionation, followed by magnetic pan T-cell isolation using the Miltenyi Biotec human pan-T-cell isolation kit. Isolated T-cells were labeled with 2.5 μM CellTrace Violet (Invitrogen) and were co-cultured with irradiated (3500 cGy) on-column T-cell-depleted cell fractions from unrelated allogeneic individuals. MLR cultures were maintained for 7 days at 37° C. in XVivo15 (Lonza) supplemented with 10% FCS, 2 mM glutamine, penicillin-streptomycin and gentamycin and beta-Mercaptoethanol. KY1005 was added to the cultures at day 0 at a dose of 150 μg/L. On Day 7, cells were collected from the cultures, and were stained with antibodies against CD3, CD4, CD8, and then Live/Dead Aqua (Molecular Probes/Invitrogen) was added to exclude dead cells and debris. CellTrace Violet dilution was then measured in CD3^+, Live/Dead Aqua-cells by flow cytometry.

Series [2] deals with Cytomegalovirus (CMV), bacterial and fungal infections. The series can be described thus: CMV monitoring and infections after transplant. The format is in vivo, Rhesus macaque. The settings on record: 2D10 IgG4PE Rhesus GvHD Study, per animal. The protocol: Cytomegalovirus (CMV) monitoring was performed as previously described (Larsen et al, 2010) and is reported as CMV copies/mL of whole blood. Whole blood samples were collected and CMV viral load was measured twice weekly on days 0 to 30 post-HCT, then at least once weekly on days 31 to 60 post-HCT and then at least once every 2 weeks from day 61 until the experimental endpoint. CMV prophylaxis and treatment was performed according to our standard NHP strategy, as previously described (Zheng et al, 2017). Briefly, CMV prophylaxis was provided to all transplant recipients and included weekly Cidofovir, given at a dose of 5 mg/kg, along with renal protection with 3 doses of Probenecid (167 mg PO/dose) given within the first 24 hours after each cidofovir dose. Recipients who reactivated CMV continued cidofovir and were also treated with parenteral gancyclovir, which was given at 5 mg/kg/dose twice daily. Gancyclovir treatment was continued until CMV levels were undetectable for two weeks and then discontinued.

The next series concerns the target Rhesus monkey OX40L. The series can be described thus: Surface plasmon resonance, apparent affinity to rhesus OX40L. The settings on record: SPR, 25° C.; CNROR = Cannot resolve off-rate. The format is binding, Rhesus (Macaca mulatta). The protocol: SPR analysis was carried out using the ProteOn™ XPR36 Array System (BioRad). Anti-mouse IgG (GE Healthcare BR-1008-38) was immobilised on a GLM biosensor surface using amine coupling, the surface was then blocked using 1 M ethanolamine. Test antibodies were captured on this surface and recombinant hOX40L (human and rhesus) were used at a single concentration of 256 nM, binding sensorgrams were double referenced using a buffer injection (i.e. 0 nM) to remove baseline drift and injection artefacts. Apparent affinities for the OX40L-antibody interaction were determined using the 1:1 model inherent to the ProteOn XPR36 analysis software. The assay was run using HBS-EP (Teknova) as running buffer and carried out at 25° C.
In general terms: SPR reads the build-up and loss of mass on a sensor chip optically.

Sequence of Rhesus monkey OX40L (as listed by the source): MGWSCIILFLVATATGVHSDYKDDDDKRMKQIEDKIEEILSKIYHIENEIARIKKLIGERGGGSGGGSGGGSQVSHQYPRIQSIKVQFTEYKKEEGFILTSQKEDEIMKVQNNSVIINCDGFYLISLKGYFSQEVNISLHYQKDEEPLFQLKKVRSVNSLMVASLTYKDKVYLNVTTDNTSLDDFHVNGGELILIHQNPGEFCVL

Take “KY1005: antibody used for GVHD immunoprophylaxis in NHP, measured by antigen (OX40L) capture assay; not tied to 02D10 in this part”: the “allo-proliferation of human cells in vitro” value in series [1] was “inhibit allo-proliferation of human cells in vitro”.

B1: 2D10 IgG4PE: fully human anti-human OX40L monoclonal antibody, human IgG4-PE; VH Seq ID No:34, VL Seq ID No:48; 2D10-1 to -4 are stable pools (antibody, V domains shown)
VH: EVQLVESGGGLVQPGGSLRLSCAASGFTFSNYAMNWVRQAPGKGLEWVSTISGSGGATRYADSVKGRFTISRDNSRNTVYLQMNSLRVEDTAVFYCTKDRLIMATVRGPYYYGMDVWGQGTTVTVSS
VL: DIQMTQSPSSLSASVGDRVTITCRASQSISSYLNWYQQKPGKAPNLLIYAASSLQSGVPSRFSGSGSETDFTLTISSLQPEDFATYYCQQSHSVSFTFGPGTKVDIK
modifications: human IgG4-PE constant regions; 02D10 - VH Amino Acid Sequence; 02D10 - VL Amino Acid Sequence
On to B1, for which the “evidence of CMV or rhLCV infection” value in series [2] was “No evidence of CMV or rhLCV infection and No (3×) and followed by autologous repopulation concurrent with evidence of CMV and rhLCV”. Also, the “Apparent Affinity RhsOX40L (nM)” value at Rhesus monkey OX40L was “CNROR”.
